The record followed here is PMC3619014 (Molecular pharmaceutics, 2012).

The target in the assay is human KDR (VEGFR-2) expressed on porcine aortic endothelial cells (PAE/KDR) (human, UniProt P35968 20-1356). The experiment in a line: radioligand binding.
human KDR (VEGFR-2) expressed on porcine aortic endothelial cells (PAE/KDR), sequence (P35968 20-1356): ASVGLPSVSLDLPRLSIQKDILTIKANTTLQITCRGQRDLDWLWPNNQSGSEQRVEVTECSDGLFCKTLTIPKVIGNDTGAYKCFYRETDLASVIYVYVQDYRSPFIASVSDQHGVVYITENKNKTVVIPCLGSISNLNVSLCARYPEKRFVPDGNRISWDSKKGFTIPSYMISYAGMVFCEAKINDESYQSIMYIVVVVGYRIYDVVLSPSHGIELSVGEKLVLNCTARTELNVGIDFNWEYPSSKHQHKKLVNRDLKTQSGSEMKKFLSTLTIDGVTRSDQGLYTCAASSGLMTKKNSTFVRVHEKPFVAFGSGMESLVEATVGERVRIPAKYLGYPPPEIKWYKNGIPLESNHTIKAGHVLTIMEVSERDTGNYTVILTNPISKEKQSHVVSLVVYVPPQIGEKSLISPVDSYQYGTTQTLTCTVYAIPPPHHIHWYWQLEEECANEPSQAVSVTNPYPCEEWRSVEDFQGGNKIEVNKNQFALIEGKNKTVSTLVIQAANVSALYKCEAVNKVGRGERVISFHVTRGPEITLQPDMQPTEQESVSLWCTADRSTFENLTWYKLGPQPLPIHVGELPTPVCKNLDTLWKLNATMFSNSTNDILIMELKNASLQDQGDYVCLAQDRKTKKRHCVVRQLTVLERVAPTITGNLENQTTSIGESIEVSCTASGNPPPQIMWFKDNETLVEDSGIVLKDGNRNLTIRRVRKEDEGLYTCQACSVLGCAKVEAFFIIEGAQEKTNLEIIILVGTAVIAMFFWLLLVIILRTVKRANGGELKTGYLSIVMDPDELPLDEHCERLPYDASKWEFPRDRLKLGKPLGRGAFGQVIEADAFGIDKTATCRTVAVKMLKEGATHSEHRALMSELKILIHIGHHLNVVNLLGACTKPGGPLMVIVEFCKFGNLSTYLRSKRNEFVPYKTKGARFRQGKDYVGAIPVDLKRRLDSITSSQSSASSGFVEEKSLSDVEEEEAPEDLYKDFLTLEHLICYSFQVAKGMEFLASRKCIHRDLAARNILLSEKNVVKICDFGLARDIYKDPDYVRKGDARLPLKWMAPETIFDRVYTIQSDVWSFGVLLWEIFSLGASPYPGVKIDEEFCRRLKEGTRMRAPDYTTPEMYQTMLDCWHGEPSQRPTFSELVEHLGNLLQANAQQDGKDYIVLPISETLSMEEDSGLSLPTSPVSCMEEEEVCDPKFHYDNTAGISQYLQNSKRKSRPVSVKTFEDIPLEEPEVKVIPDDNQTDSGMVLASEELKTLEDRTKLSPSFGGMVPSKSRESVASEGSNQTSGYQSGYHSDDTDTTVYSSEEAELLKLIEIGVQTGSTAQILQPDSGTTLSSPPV

B1: NOTA-K3-VEGF121 (ligand)
chain: KKKAPMAEGGGQNHHEVVKFMDVYQRSYCHPIETLVDIFQEYPDEIEYIFKPSCVPLMRCGGCCNDEGLECVPTEESNITMQIMRIKPHQGQHIGEMSFLQHNKCECRPKKDRARQEKCDKPRR
modifications: NOTA (from p-SCN-Bn-NOTA) on lysine residues, estimated 1~2 NOTA residues in each NOTA-K3-VEGF121; positions not determined
As usually defined, the IC50 is the point on the concentration scale where inhibition reaches its midpoint. A low value points to greater potency in that assay. With B1, the IC50 turned out to be 1.5 nM.
